This is an account of results in US20170189529A1.

In experiment [1] the target is hemagglutinin (HA) of influenza B virus B/Florida (Yamagata lineage) (influenza B virus B/Florida/06 (Yamagata clade)). Description: ForteBio Octet; antigen on the sensor, varying antibody concentrations. (In general: Biolayer interferometry detects binding as a change in optical thickness at a sensor tip.)
In experiment [2] the target is hemagglutinin (HA) of influenza B virus B/Malaysia (Victoria lineage) (influenza B virus B/Malaysia/04 (Victoria clade)). The experiment is described as above.
Experiment [3] addresses recombinant HA of influenza A H1 A/California/09 (influenza A virus H1 A/California/09). The experiment can be described thus: recombinant HA ELISA (AttoPhos fluorescence, mean of triplicates). On the technique in general: ELISA stands for enzyme-linked immunosorbent assay.
The target of experiment [4] is recombinant HA of influenza A H3 A/Sydney/97 (influenza A virus H3 A/Sydney/97). The experiment is described as above.
Experiment [5] has as its target H5 Vietnam/1194/2004 HA monomer (influenza A virus H5 Vietnam/1194/2004). The experiment can be described thus: kinetic binding to HA monomer (instrument not stated).
Experiment [6] has as its target H7 Netherlands/219/03 HA monomer (influenza A virus H7 Netherlands/219/03). The experiment is described as above.
The target in experiment [7] is H9 HongKong/1073/99 HA monomer (influenza A virus H9 HongKong/1073/99). Described as above.
The target in experiment [8] is H5 Vietnam/1203/2004 HA trimer (influenza A virus H5 Vietnam/1203/2004). The experiment can be described thus: kinetic binding to HA trimer (instrument not stated).
Experiment [9] deals with H3 Perth/16/2009 HA monomer (influenza A virus H3 Perth/16/2009). Description: kinetic binding to HA monomer (instrument not stated).
For experiment [10], the target named is H7 Netherlands/219/03 HA trimer (influenza A virus H7 Netherlands/219/03). The experiment can be described thus: kinetic binding to HA trimer (instrument not stated).

B1: TRL835 (antibody, V domains shown)
VH: QVQLVQSGAEVRKPGESLRISCRGSGYNFPKYWIGWVRQMPGKGLEWMGMIYPGDSDVRYNPSFQGQVTISADESINTAYLQWSSLRTSDTARYYCARHLGQQLVSNTYYYYGMDVWGQGTTVTVSS
VL: DIVLTQSPLSLPVTPGEPASISCRSSQSLLDSNGYNYLDWYLQKPGQSPQLLIYLASYRAPGVPDRFSGSGSGTDFTLKISRVEAEDVGLYYCMQALQTPPMYTFGQGTKLEIKR
Turning to B1, the Kd (commonly the constant that tells how readily two partners part at equilibrium) was 0.6 nM in experiment [1] and 2.3 nM in [2].

B2: TRL832 (antibody, V domains shown)
VH: QVQLVESGPGLMKPSETLSLTCTVSGGSVSNYYWSWIRQPPGKGLEWIGYVFYSGSSNYNPSLNNPSLKSRVTISIDTSNNQFSLKLSSVTAADTAVYYCARGRVNSGYDWGPNFDSWGQGALVTVSS
VL: DIVLTQAPSVSVSPGQTASITCSGDRLGEKFASWYQQKPGQSPVLVIYEDSKRPSGIPDRFSGSNSGNTATLTISGTQIMDEGDFFCQAWDSSTVVFGGGTKLTVLG
Consider B2, for which the fold reactivity over background (fold over background) in experiment [3] and in experiment [4] was 1.1 in each case.

B3: TRL053 (antibody, V domains shown)
VH: QVQLVQSGAEVRKPGSSVKVSCKVSGGIIRKYAINWVRQAPGQGLEWMGGIIAIFNTANYAQKFQGRVTITADESTSTVYMELSSLRSEDTALYYCARGMNYYSDYFDYWGQGSLVTVSP
VL: EIVLTQSPGTLSLSPGERATLSCRASQSVRSNNLAWYQHKPGQAPRLLIFGASSRATGIPDRFSGSGSGTDFTLTISRLEPEDFAVYYCQQYGSSPALTFGGGTKVEIKR
Turning to B3, the dissociation constant (Kd) in experiment [5] was 0.5 nM; in experiment [6] it was 1.2 nM; in experiment [7], 0.2 nM; in experiment [8], 0.5 nM. Also, the koff – broadly, a measure of how fast the partners let go of each other – in experiment [5] was 1.9e-05 s⁻¹; in experiment [6], 6.7e-05 s⁻¹; in experiment [7], 1.6e-05 s⁻¹; in experiment [8] it was 4.5e-05 s⁻¹. In addition, the kon – broadly, the rate constant with which the complex forms – in [5] amounted to 38000 M⁻¹ s⁻¹; in experiment [6] it was 55000 M⁻¹ s⁻¹; in experiment [7], 98000 M⁻¹ s⁻¹; in experiment [8], 92000 M⁻¹ s⁻¹. For the same molecule, the fold reactivity over background (fold over background) in experiment [3] came out at 25.6; in experiment [4], 1.

B4: TRL813 (antibody, V domains shown)
VH: QVQLVESGGGLVQPGGSLRLSCAASGFIFGDFAIHWVRQASGKGLEWVARIRSGLNRFETAYAASVEGRLTISRDDSKSMAYLQMNNVKAEDTAVYLCTYLVGAVGFQHWGQGTLVTVSS
VL: DIVMTQSPSTLSASVGDRVTITCRASQTIYRWLAWYQQKPGKAPKVLIYKASTLESGVPSRFSGSGSGTEFTLAISSLQPDDFATYYCQQYNSFPYRFGQGTKVEIKR
In the case of B4, the fold reactivity over background (fold over background) was found to be 1.6 in experiment [3] and 1.1 in experiment [4].

B5: TRL837 (antibody, V domains shown)
VH: QVQLVQSGAEVKKPGSSVTVSCKTSGHTFISYAISWLRQAPGQGLEWMGGIVPIFGTVNYTQKFQGRLTITADESTSTAYMDLSRLTFEDTAIYFCAREAGYHSSFSGVYFDYWGQGTLLTVSS
VL: DIVMTQSPGTLSLSPGERATLYCRASQSVRSGYLAWYQHKPGQAPLLLFYDASGRATGIPDRFSGSGSGTDFTLTISRLEPEDFAVYYCLQYGSSPRTFGQGTKVEIKR
B5: the Kd in [1] is 0.3 nM; in experiment [2], 1 nM.

B6: TRL579 (antibody, V domains shown)
VH: QVQLVQSGAEVKKPGASVKVSCKTSGYTFTAYTIHWVRQAPGQRLEWMGWINAGNGHTKYSQRFKGRVTITRDTSARTTYMELRSLTSEDTALYFCARGPETYYYDKTNWLNSHPDEYFQHWGHGTQVTVSS
VL: DIQMTQSPSTLSASVGDRVTITCRASQTINNYLAWYQQKPGKAPKLLIYKASSLESGVPSRFSGSGSGTEFTLTISSLQPDDFATYYCQEYNNDSPLTFGGGTKVEIKR
In [9], B6 registered a Kd of 3.9 nM, a koff of 0.00064 s⁻¹ and a kon of 170000 M⁻¹ s⁻¹. In [10], this molecule showed a Kd of 0.4 nM, an off-rate constant (koff) of 4e-05 s⁻¹ and a kon of 100000 M⁻¹ s⁻¹. In experiment [3], the fold reactivity over background (fold over background) was 1. In addition, in [4], the fold reactivity over background (fold over background) stood at 25.6.

B7: TRL847 (antibody, V domains shown)
VH: QVQLVESGGGLVQPGGSLRLSCVASGFTFSRFSMNWVRQAPGMGLEWVSYISDTGRTIYYADSVKGRFTISRDNDKNTLYLQMKSLRDEDSAFYYCARDPDTPFVRAFDSWGQGVLVTVSS
VL: DIVMTQSPSFLSASVGDRVTITCRTSQVISSYLAWYQQRPGKAPKLLIYAASTLQSGVPSRFSGSGSGTRFSLTISNLQPEDFATYFCQQLTTYPPITFGQGTRLEIKR
Consider B7, for which the values for the fold reactivity over background (fold over background) in experiment [3] and in experiment [4] were 1.1 and 1, respectively.

B8: TRL823 (antibody, V domains shown)
VH: QVQLVESGGGVVQPGGSLRLSCAASGFNFDEYVMYWVRQSPGKGLEWVSLIGADGRGTYNSDSVKGRFTISRDNRKNSLYLQMNSLRSDDTALYYCAKVERSFYDGSGYGDALEIWGQGTMVTVSS
VL: DIVMTQSPSSLSASVGDRVSITCRASQTITRFLNWYQQKPGKGPKLLIYAASTVHRGVPSRFSGSGSGTDFTLTISSLQPEDFATYYCQQSYSAPFTFGPGTTVDIRR
B8: the Kd in experiment [1] was determined as 2 nM; in experiment [2], 0.3 nM.

B9: TRL856 (antibody, V domains shown)
VH: QVQLVESGGGLVQPGGSLRLSCAASGFTFSDYWMVWVRQAPGKGLVWVSRISSDGSTTSYADSVKGPFTISRDNAKNTLYLQMNSLRAEDTAVYYCARVATPYYYESGFDYWGQGALVTVSS
VL: DIVLTQSPSVSVAPGQTARITCGGNDIGSKSVHWYQQKPGQAPVLVVFDDRDRPSGIPERFSGSNSGNTATLTISRVEAGDEADYYCQVWDITSDLVVFGGGTKLTVVG
On to B9, for which the fold reactivity over background (fold over background) in experiment [3] worked out at 1.2; in experiment [4] it was 1.3.

B10: TRL833 (antibody, V domains shown)
VH: QVQLLESGPGLVKPSQTLLLTCTVSGASISTGGNYWSWIRQHPGKDLEWIGYIFYSGTTKYNPSVDNPSLKSRVTMSVDTSENQFSLKLSSVTAADTAVYFCARGSPNSGYDWGPHFDYWGQGTLVTVSS
VL: DIELTQSPSVSVSPGQTASITCSGDKLGDKFVCWYQQKAGQSPIVVIYQDDKRPSGIPERFSGSNSGNTATLTISGTQAMDEADYFCQAWDSTTVVFGGGTKLTVLG
On to B10, for which the Kd came out at 2.9 nM in [1] and 0.2 nM in experiment [2].

B11: TRL784 (antibody, V domains shown)
VH: QVQLVQSGPELKKPGSSVKLSCMATGGTFINYAFSWVRQAPGQGLEWLGGIIPVYGTSNHVEKLQGRVTITADASTNTAYMELSGLRFDDTAVYFCAASTATSGTYYAMRPFDFWGQGTLVSVSS
VL: DIELTQDPSVSVAPGQTARIPCVRFNMGPTSVHWYQQKPGQAPVLVVYDDSDRPSGIPERFSGSNSGDSATLTISRVEAGDEADYYCQVWDMSSDRRVFGGGTTLTVLG
B11: the Kd in [1] turned out to be 0.7 nM; in [2], 7 nM.

B12: TRL854 (antibody, V domains shown)
VH: QVQLVESGAEVKKPGASVRVSCKGSGYTFTAYHMHWVRQAPGQGFEWVGWINPNSGATYYTSTFEGRVTMTRDTSITTAYMELSSLRSDDTAVYYCATDIVVERDASLGGFNSYGMDVWGQGTTVTVSS
VL: DIEMTQSPLSLPVTPGEPASISCRSSQSLLHSNGYNHLAWYLQKPGRSPHLLIYLASTRASGVPDRFSGSGSGTDFTLKISRVEAEDVGIYYCMQSLQTSITFGQGTRLEIKR
On to B12, for which the figures for the fold reactivity over background (fold over background) in experiment [3] and in [4] were 1.2 and 1.3, respectively.

B13: TRL845 (antibody, V domains shown)
VH: QVQLVQSGGDLVQPGGSLRLSCAASGFTFSRYSMNWVRQAPGMGLEWVAYISDTSRTIYYADSVKGRFTISRDNAKNSLYLQMKSLRDEDTAVYYCARDPDTPFVRAFDSWGQGTLVTVSS
VL: DIVLTQSPSFLSASVGDRVTITCRASQLISSYFAWYQQKPGKPPKLLIYAASTLQSGVPSRFSGSGSGTQFSLTISSLQPEDFATYYCQQLNSYPPITFGQGTRLEIKR
For B13, the results for the fold reactivity over background (fold over background) in experiment [3] and in [4] were 1.4 and 1.1, respectively.
